Values belong to the substance of their own block, whether it stands above or below them.
Columns and labels:
[1] = target: membrane-bound non-cleavable TNFα (human) (UniProt P01375); experiment: cell-based or functional assay
CD20 = CD20 (UniProt P11836); experiment: cell-based or functional assay
Chain of UniProt P11836 (P11836 whole entry): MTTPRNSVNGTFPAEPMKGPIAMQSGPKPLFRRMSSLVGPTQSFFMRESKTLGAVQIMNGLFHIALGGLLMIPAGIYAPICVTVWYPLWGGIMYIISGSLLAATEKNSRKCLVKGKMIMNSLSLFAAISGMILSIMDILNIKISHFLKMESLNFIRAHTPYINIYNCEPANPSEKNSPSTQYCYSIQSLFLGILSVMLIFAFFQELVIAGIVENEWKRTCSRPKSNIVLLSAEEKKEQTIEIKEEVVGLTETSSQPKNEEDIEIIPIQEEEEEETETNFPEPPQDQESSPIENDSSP

Chain of UniProt P01375 (P01375 whole entry A76L/V77L): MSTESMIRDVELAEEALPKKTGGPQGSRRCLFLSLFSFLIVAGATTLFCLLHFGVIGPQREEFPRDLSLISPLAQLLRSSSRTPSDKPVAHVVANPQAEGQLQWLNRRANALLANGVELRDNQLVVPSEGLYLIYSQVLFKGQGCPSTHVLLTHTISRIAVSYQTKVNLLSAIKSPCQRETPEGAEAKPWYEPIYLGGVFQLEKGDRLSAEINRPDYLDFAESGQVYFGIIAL

ADCC Reporter Gene Assay, Serum Sample/Control; Hum. Serum + adalimumab [1]: 2.39
ADCC Reporter Gene Assay, Serum Sample/Control; No Hum. Serum + adalimumab [1]: 2.65
ADCC Reporter Gene Assay, Target Positive Cells (RLU); Hum. Serum + adalimumab [1]: 27000 RLU
ADCC Reporter Gene Assay, Target Positive Cells (RLU); No Hum. Serum + adalimumab [1]: 30000 RLU
ADCC Reporter Gene Assay, Target+/Target-; Hum. Serum + adalimumab [1]: 12.3
ADCC Reporter Gene Assay, Target+/Target-; No Hum. Serum + adalimumab [1]: 17.6
Substance: adalimumab (antibody)

ADCC Reporter Gene Assay, Serum Sample/Control; Hum. Serum + Etanercept [1]: 2.77
ADCC Reporter Gene Assay, Serum Sample/Control; No Hum. Serum + Etanercept [1]: 2.66
ADCC Reporter Gene Assay, Target Positive Cells (RLU); Hum. Serum + Etanercept [1]: 23700 RLU
ADCC Reporter Gene Assay, Target Positive Cells (RLU); No Hum. Serum + Etanercept [1]: 22800 RLU
ADCC Reporter Gene Assay, Target+/Target-; Hum. Serum + Etanercept [1]: 13.1
ADCC Reporter Gene Assay, Target+/Target-; No Hum. Serum + Etanercept [1]: 14.1
Substance: etanercept (Fc fusion)

EC50 of the ADCC reporter gene assay (NFAT effector cells & wild type Raji cells, no human serum) (CD20): 1.2 µg/mL
EC50 of the ADCC reporter gene assay (iLite effector cells & CD20++ target cells, no human serum) (CD20): 0.002 µg/mL
Substance: rituximab (antibody)
